Like-named read-outs stand apart in the source and are kept apart here.
Tests used:
[1] = molecular target: Azotobacter vinelandii ^NifIscA (Azotobacter vinelandii); assay: SEC
[2] = molecular target: Azotobacter vinelandii ^NifIscA (Azotobacter vinelandii); assay: SEC; remark: listed apart in the source

stoichiometry N [1]: 2
stoichiometry N [2]: 2
Substance: Azotobacter vinelandii ^NifIscA (natural protein)
